Data from the supplement of paper PMC10724198.
± gives the standard deviation of the averaged measurements.

Key:
[1] = system: Saccharomyces cerevisiae; assay: protein stability index of tFT-peptide fusion (C-terminal peptide) (PSI (0-1 scale)); higher = more stable (slower turnover)
Experimental: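 MPS profiling in S. cerevisiae of the tFT-X12 degron library: putative degron peptides plus stable controls, 12 aa, fused to the C-terminus of a sfGFP-mCherry timer. Cells are FACS-sorted into 8 mCherry/sfGFP bins and deep-sequenced. PSI runs from 0 (unstable) to 1 (stable). Backgrounds are wild type, das1Δ and doa10Δ at 30 °C, and wild type, das1Δ, cdc34-1 and cdc53-1 at 37 °C; 2-3 technical replicates each.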

[2] = system: Saccharomyces cerevisiae; assay: as above; settings: genetic background: wild type; temperature: 30 C
[3] = genetic background: cdc34-1, temperature: 37 C
[4] = genetic background: cdc53-1, temperature: 37 C
[5] = genetic background: das1 deletion, temperature: 30 C
[6] = genetic background: das1 deletion, temperature: 37 C
[7] = genetic background: doa10 deletion, temperature: 30 C
[8] = genetic background: wild type, temperature: 30 C
[9] = genetic background: wild type, temperature: 37 C
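Further: PSI is a weighted mean of sequencing reads over stability bins, variants kept only with over 10 reads, mCherry proximal and sfGFP distal, peptide attached via GGGS linker.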

| Sequence | protein stability index [1, 3] | protein stability index [1, 4] | protein stability index [1, 5] | protein stability index [1, 6] | protein stability index [1, 7] | protein stability index [1, 8] | protein stability index [1, 9] | protein stability index [2] |
| --- | --- | --- | --- | --- | --- | --- | --- | --- |
| PPPPHSAPLFLS | 0.604 ± 0.007 | 0.697 ± 0.011 | 0.651 ± 0.019 | 0.694 ± 0.011 | 0.227 ± 0.0096 | 0.261 ± 0.032 | 0.458 ± 0.011 | 0.37 ± 0.0087 |
| LSVYFSLSLCVS | 0.363 ± 0.014 | 0.451 ± 0.0063 | 0.384 ± 0.025 | 0.462 ± 0.011 | 0.392 ± 0.0084 | 0.399 ± 0.017 | 0.429 ± 0.017 | 0.448 ± 0.02 |
| LISRLVLVFVIP | 0.3804 ± 0.00059 | 0.443 ± 0.012 | 0.287 ± 0.032 | 0.529 ± 0.0056 | 0.284 ± 0.021 | 0.272 ± 0.026 | 0.4696 ± 0.0045 | 0.38 ± 0.011 |
| SCLSLALLVFFG | 0.442 ± 0.014 | 0.524 ± 0.031 | 0.36 ± 0.019 | 0.523 ± 0.014 | 0.315 ± 0.0051 | 0.349 ± 0.02 | 0.515 ± 0.039 | 0.411 ± 0.061 |
| HVSVIRRGICCA | 0.266 ± 0.014 | 0.2978 ± 0.0018 | 0.271 ± 0.026 | 0.398 ± 0.0092 | 0.233 ± 0.0093 | 0.278 ± 0.015 | 0.3675 ± 0.0027 | 0.374 ± 0.034 |
| AEIVCLTDGLLF | 0.715 ± 0.012 | 0.758 ± 0.038 | 0.623 ± 0.013 | 0.7252 ± 0.0028 | 0.641 ± 0.028 | 0.665 ± 0.024 | 0.707 ± 0.0076 | 0.5 ± 0.2 |
| PPPPLFLIVLHL | 0.5196 ± 0.0015 | 0.621 ± 0.031 | 0.465 ± 0.03 | 0.642 ± 0.012 | 0.4109 ± 0.0026 | 0.401 ± 0.026 | 0.593 ± 0.023 | 0.434 ± 0.033 |
| GLLSLSGLRWFC | 0.672 ± 0.051 | 0.74727 ± 0.00044 | 0.659 ± 0.021 | 0.763 ± 0.022 | 0.163 ± 0.021 | 0.19 ± 0.035 | 0.462 ± 0.012 | 0.276 ± 0.11 |
| LSFFICSFFFVL | 0.514 ± 0.045 | 0.556 ± 0.014 | 0.456 ± 0.03 | 0.5798 ± 0.0013 | 0.344 ± 0.006 | 0.361 ± 0.021 | 0.5113 ± 0.0012 | 0.408 ± 0.013 |
| GGVFYVFFVFVG | 0.19 ± 0.016 | 0.39 ± 0.016 | 0.246 ± 0.024 | 0.425 ± 0.013 | 0.128 ± 0.0049 | 0.153 ± 0.023 | 0.258 ± 0.013 | 0.195 ± 0.0076 |
| ICWVSLYFSMLV | 0.457 ± 0.018 | 0.479 ± 0.019 | 0.373 ± 0.018 | 0.5069 ± 0.0045 | 0.3348 ± 0.00038 | 0.333 ± 0.025 | 0.464 ± 0.028 | 0.406 ± 0.084 |
| GGVVAACRGGIG | 0.319 ± 0.011 | 0.3862 ± 0.0037 | 0.351 ± 0.017 | 0.394 ± 0.0076 | 0.361 ± 0.022 | 0.348 ± 0.01 | 0.374 ± 0.0091 | 0.346 ± 0.04 |
| YHGVYLARVLQA | 0.639 ± 0.0084 | 0.677 ± 0.021 | 0.604 ± 0.011 | 0.69 ± 0.015 | 0.243 ± 0.011 | 0.286 ± 0.024 | 0.501 ± 0.029 | 0.45 ± 0.041 |
| FFAIFSLLLSFT | 0.449 ± 0.015 | 0.482 ± 0.0083 | 0.401 ± 0.028 | 0.532 ± 0.012 | 0.399 ± 0.007 | 0.4 ± 0.014 | 0.527 ± 0.0072 | 0.459 ± 0.026 |
| KVALWRRGVLAA | 0.363 ± 0.028 | 0.387 ± 0.013 | 0.257 ± 0.037 | 0.476 ± 0.011 | 0.142 ± 0.0064 | 0.161 ± 0.02 | 0.286 ± 0.0099 | 0.231 ± 0.007 |
| VFVGWVLCVVGG | 0.04576 ± 0.00018 | 0.161 ± 0.0032 | 0.143 ± 0.021 | 0.2762 ± 0.00081 | 0.0778 ± 0.03 | 0.132 ± 0.027 | 0.2377 ± 0.002 | 0.218 ± 0.045 |
| YQHSRSGRNKII | 0.591 ± 0.12 | 0.724 ± 0.033 | 0.652 ± 0.028 | 0.716 ± 0.021 | 0.109 ± 0.0063 | 0.117 ± 0.034 | 0.122 ± 0.035 | 0.235 ± 0.012 |
| LRFSLLRVGWLC | 0.652 ± 0.053 | 0.681 ± 0.017 | 0.58 ± 0.0099 | 0.732 ± 0.022 | 0.28 ± 0.0089 | 0.336 ± 0.037 | 0.561 ± 0.011 | 0.434 ± 0.0087 |
| DFCCGVILTCVC | 0.0751 ± 0.0081 | 0.106 ± 0.011 | 0.191 ± 0.025 | 0.233 ± 0.0083 | 0.156 ± 0.012 | 0.184 ± 0.019 | 0.193 ± 0.023 | 0.279 ± 0.01 |
